# Laboratory results taken from patent US20250367130A1, “THERMORESPONSIVE HYDROGEL CONTAINING METAL-ORGANIC FRAMEWORK PARTICLES FOR NONINVASIVE OCULAR DRUG DELIVERY” (University of Pittsburgh - Of the Commonwealth System of …, priority 2024, published 2025).
# B1: ovalbumin (protein, UniProt P01012 2-386, looked up)
# Ovalbumin: GSIGAASMEFCFDVFKELKVHHANENIFYCPIAIMSALAMVYLGAKDSTRTQINKVVRFDKLPGFGDSIEAQCGTSVNVHSSLRDILNQITKPNDVYSFSLASRLYAEERYPILPEYLQCVKELYRGGLEPINFQTAADQARELINSWVESQTNGIIRNVLQPSSVDSQTAMVLVNAIVFKGLWEKAFKDEDTQAMPFRVTEQESKPVQMMYQIGLFRVASMASEKMKILELPFASGTMSMLVLLPDEVSGLEQLESIINFEKLTEWTSSNVMEERKIKVYLPRMKMEEKYNLTSVLMAMGITDVFSSSANLSGISSAESLKISQAVHAAHAEINEAGREVVGSAEAGVDAASVSEEFRADHPFLFCIKHIATNAVLFFGRCVSP
# notes: test agent, acting as a surrogate agent for other anti-VEGF proteins
# Experiment: Biodistribution study of ovalbumin in rabbit eye tissues and plasma, quantified with ELISA
# Assay type: in vivo, New Zealand white rabbits
# Description: Biodistribution studies involved healthy New Zealand white rabbits (n=5). The right eye of the rabbits was given a 100 μL of gel with the MOF and PLGA MP particles, independently, and a 50 μL injection of 10 mg/mL ovalbumin solution, for comparative purposes. The left eye was the experimental control. At 1 and 3 days, rabbits were sacrificed, and both eyes were removed. Aqueous humor, vitreous humor, retina-choroid and plasma were collected, and time-dependent concentrations were quantified with ELISA.
# After one administration of the topical delivery system, ovalbumin is detectable in the aqueous humor, vitreous humor, retina-choroid, and plasma. […] However, these concentrations are 10^5 lower than what is seen with intravitreal injections after 3 days.
# [1] = after one administration of the topical delivery system, rabbit
molecule,measurement,setting,value
B1,ovalbumin detection in aqueous humor,"after one administration of the topical delivery system (100 μL gel with particles), rabbit",detectable
same,ovalbumin concentration in retina-choroid relative to vitreous humor,[1],9 ×
same,ovalbumin concentration in the vitreous humor,[1],~1 ng/mL
same,ovalbumin detection in plasma,[1],detectable
same,ovalbumin detection in retina-choroid,[1],detectable
same,ovalbumin detection in vitreous humor,[1],detectable
same,factor by which concentrations are lower than with intravitreal injections,"topical delivery system vs intravitreal injection, after 3 days",10^5
